Measured values from article PMC3084761.

Target: ECFP-FKBP38 fusion protein (pECFP-C1-FKBP38), Q14318
Test: FRET or BRET; live-cell confocal FRET of ECFP (donor) and EYFP (acceptor) fusions in HEK293 cells transfected 48 h; acceptor/donor plasmid ratios 1:1 to 5:1; FRET efficiency against A/D ratio fitted to a 1:1 binding model
Conditions: remark: other sources report otherwise

ECFP-FKBP38 fusion protein (pECFP-C1-FKBP38), Q14318, sequence (Q14318 whole entry, the tested form may be a part): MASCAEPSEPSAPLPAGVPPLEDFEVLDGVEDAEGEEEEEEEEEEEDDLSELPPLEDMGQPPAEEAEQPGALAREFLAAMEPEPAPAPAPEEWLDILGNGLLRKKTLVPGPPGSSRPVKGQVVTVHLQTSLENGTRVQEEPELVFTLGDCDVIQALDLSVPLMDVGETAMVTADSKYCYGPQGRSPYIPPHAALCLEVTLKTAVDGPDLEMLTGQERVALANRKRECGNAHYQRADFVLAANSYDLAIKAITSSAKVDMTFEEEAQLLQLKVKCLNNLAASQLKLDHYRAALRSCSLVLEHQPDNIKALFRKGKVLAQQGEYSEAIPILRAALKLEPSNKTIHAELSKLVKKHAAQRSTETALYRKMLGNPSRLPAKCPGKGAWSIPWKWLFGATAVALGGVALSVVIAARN

maximum FRET efficiency: > 20%
B1: PHD2-EYFP (PHD2 coding sequence in pEYFP-N1), Q9GZT9 1-426 (enzyme)
chain: MANDSGGPGGPSPSERDRQYCELCGKMENLLRCSRCRSSFYCCKEHQRQDWKKHKLVCQGSEGALGHGVGPHQHSGPAPPAAVPPPRAGAREPRKAAARRDNASGDAAKGKVKAKPPADPAAAASPCRAAAGGQGSAVAAEAEPGKEEPPARSSLFQEKANLYPPSNTPGDALSPGGGLRPNGQTKPLPALKLALEYIVPCMNKHGICVVDDFLGKETGQQIGDEVRALHDTGKFTDGQLVSQKSDSSKDIRGDKITWIEGKEPGCETIGLLMSSMDDLIRHCNGKLGSYKINGRTKAMVACYPGNGTGYVRHVDNPNGDGRCVTCIYYLNKDWDAKVSGGILRIFPEGKAQFADIEPKFDRLLFFWSDRRNPHEVQPAYATRYAITVWYFDADERARAKVKYLTGEKGVRVELNKPSDSVGKDVF
